Source: the DeepSol protein solubility set

test: soluble on expression in E. coli; label from the status in PepcDB or PDB records

Sequence	soluble on expression in E. coli
MASNVSLTGLAHDLKQRAENHPPIRIGLIGCGEMGTDLLSSIAHMDGITVAAVATRTPSRIFDAARLAYGEEGHVREVENASALTRTIEKGLIAATNDIDLVLRHEQIDIIVDATGYPEAGAEIGFKALENNKNLVMMNVEADVTIGAYLKHEAEKQGLIYTLGAGDEPTSCMELIEFVSALGHKI	not soluble
MEKQNFVVLKNICKRFGSNTVIGNLDLEIKKGSLVTLLGPSGCGKTTVLRLVAGLEKPTSGQIFIDGEDVTERSIQQRDICMVFQSYALFPHMSLYENVAYGLKMLKLPSEEVRQRVDEALKIVDLEGMGERYVDQISGGQQQRVALARALVLKPKVLLFDEPLSNLDANLRRSMRETIRELQQRFDITSLYVTHDQAEAFAVSDTVIVMKQGDIMQIGTPQELYKAPKSMFMANFMGEANMFQGHFDGQQIHINGYAIDADLEVTRDKPNGEYQIGVRPEAITLHTQGSESQACQILKSAYMGSMYEVTVKWHDQELLLQLNSAQFNHTLTQHAYVVFNPRGLFLLPYAE	not soluble
MAHHHHHHMSSSVKDILLEGSTCSTDMKLNDFLRSKLGGRGVVDTNEKVAMEMFVQDPETFIQNERLLRIITASPSYQELERELDEMKILLEAINKLHDEDVFSLEQWRGYEGKDTVTPLARGKINGVLTHVLREERRWAEERAVREKQVELTLTTTIEDVLFRGRVRVKDMKLNDFITMEMEGRGILRANRNVLLKEFFKDPTRYIHDAGVLNEIQASDAYLMAERAVRDEMDMEKDLRKLYKNGVSNLFGWSVASAEIRASVRDITKSFLDAALEEARKPTTTIAPIKMEGLYESVYNARWHHVVEVPGGEGTGMEVKKGRPPQQWTYKKVGYCLERDDGAEQYGAARLRLMVLASDKGRAVLVGGD	not soluble
QRRQMEMQSVNLVHEALSNQRLELFAQRVMNLQSPESLMYFEILVRIRDAQGNYVSPAIFIPASERYNIAHWIDKQVINQALEWFEQRPDVVEKLGRCSINLSGQSMGNQEFIDFLFERLKNSTMPCEKICLEITETAAMGNLDQAIDFFTRAKSLGCMIALDDFGSGLSSFGYLKKLPVDIVKIDGLFVRDIDVNEMDRVMVRSINDLAKQLGKVTVAEFVENEQVMQHLIDLGVDYGQGYGIGHPKPLAELVENLSSL	not soluble
MAAVSEFRLLQLPERAQRISLSHMSYNSIFSLSLCSTKKNKRPQGVPIRTLTYEGIEITSDRINRKHPVSDTFLSKAGFLDFYNCTYKSSQFIHKFLIHNTTTVFTRGVPRYNLNDLLVSNGQKIYVQVGRGIIFLEKDVNKFLKHWIRGSNRELKSLAFRAPMNMEIEHAIETILKGICYKDAREEDAASIKLVHICNGNTFKHPIIKISGFRIKRFDGTNATVVIRLLNANSVCFTSYVLHFLHNTSIMAAVSPFRLLQLPQRAQRISLSHMSSVSVFSLSLCATKNTKDLVRSLNLKCIRLCLEFFDDLILSICFEGCIIDFYLYMLNSSQKITPGLCAPKNVQVSTNDVKNFKWERPNLKFRNWIDHFLYILNISTLDVAMGKGVRVKKLSYHILDMTSNETNRTNSVNDTFLSKAEFIVLSNCTYETSQSIHKFLICNNATLFSNVFSPYNLNDLLISNCQNLLVNVDRGNIFLGQDVNKFLKHWIRGSNVTLKCLALEAPMNMERELVIETILEGIDYKVKEEEVSVYKKMLDIFNHGNPSITKIRGFRITRFDGTNCDVVIRTCNPSVMRYSLNMFIF	not soluble
MSLENDFPLKGKTVLVTRNKAQAASFQQKVEALGGKAVLTSLITFRRALPNDVAEQVREDLAAPGWLVFTSVNGADFFFSYLKENQLILPAHKKIAAVGEKTARRLKMHNVSVDVMPQEYIAEQLADALKQHAEPGETITVMKGNLSRDVIKQELVPLGFEVKEWVLYETIPDEEGIEALKDAAGQYSFDYVTFTSSSTVHTFMHVLGEELKKWKANGTACISIGPLTNDALLTYGITSHTPDTFTIDGMLELMCSMSREEERIEGHHHHHH	soluble
